# Reference: the supplement of paper PMC10065799, “High-throughput profiling of sequence recognition by tyrosine kinases and SH2 domains using bacterial peptide display” (eLife, 2023)
# What was measured:
# [1] = tested on: AncSZ; assay: phosphorylation enrichment, bacterial display (enrichment ratio); higher = better substrate or ligand; peptides without Tyr show the background
# [2] = target: EPHB1 (UniProt P54762); assay: as above
# [3] = target: EPHB2 (UniProt P29323); assay: as above
# [4] = target: FGFR1 (UniProt P11362); assay: as above
# [5] = target: FGFR3 (UniProt P22607); assay: as above
# Chain of FGFR3 (P22607 whole entry, looked up): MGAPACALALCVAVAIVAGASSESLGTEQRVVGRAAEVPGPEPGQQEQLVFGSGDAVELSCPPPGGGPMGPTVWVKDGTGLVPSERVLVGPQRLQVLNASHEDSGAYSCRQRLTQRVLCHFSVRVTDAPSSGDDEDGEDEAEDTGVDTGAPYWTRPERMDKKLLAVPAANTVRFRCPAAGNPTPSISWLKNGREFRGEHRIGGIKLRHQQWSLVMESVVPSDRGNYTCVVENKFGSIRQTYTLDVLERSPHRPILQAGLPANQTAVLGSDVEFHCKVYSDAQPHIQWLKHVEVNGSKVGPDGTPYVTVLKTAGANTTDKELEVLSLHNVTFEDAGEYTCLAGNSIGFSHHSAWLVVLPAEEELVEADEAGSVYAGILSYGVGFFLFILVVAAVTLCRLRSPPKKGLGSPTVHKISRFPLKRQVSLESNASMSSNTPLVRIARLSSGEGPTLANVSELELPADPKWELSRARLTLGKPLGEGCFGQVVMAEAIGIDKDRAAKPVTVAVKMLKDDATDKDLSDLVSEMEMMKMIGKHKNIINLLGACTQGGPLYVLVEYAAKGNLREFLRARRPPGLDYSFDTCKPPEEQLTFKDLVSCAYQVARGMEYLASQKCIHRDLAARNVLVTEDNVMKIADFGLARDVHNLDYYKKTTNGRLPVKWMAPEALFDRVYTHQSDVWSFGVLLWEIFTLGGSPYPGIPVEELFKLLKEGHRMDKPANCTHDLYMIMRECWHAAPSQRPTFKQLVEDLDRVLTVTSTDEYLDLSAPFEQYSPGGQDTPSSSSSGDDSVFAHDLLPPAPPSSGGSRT
# [6] = tested on: Fer (mouse); assay: as above
# [7] = target: Fes (UniProt P07332); assay: as above
# Chain of Fes (P07332 whole entry, looked up): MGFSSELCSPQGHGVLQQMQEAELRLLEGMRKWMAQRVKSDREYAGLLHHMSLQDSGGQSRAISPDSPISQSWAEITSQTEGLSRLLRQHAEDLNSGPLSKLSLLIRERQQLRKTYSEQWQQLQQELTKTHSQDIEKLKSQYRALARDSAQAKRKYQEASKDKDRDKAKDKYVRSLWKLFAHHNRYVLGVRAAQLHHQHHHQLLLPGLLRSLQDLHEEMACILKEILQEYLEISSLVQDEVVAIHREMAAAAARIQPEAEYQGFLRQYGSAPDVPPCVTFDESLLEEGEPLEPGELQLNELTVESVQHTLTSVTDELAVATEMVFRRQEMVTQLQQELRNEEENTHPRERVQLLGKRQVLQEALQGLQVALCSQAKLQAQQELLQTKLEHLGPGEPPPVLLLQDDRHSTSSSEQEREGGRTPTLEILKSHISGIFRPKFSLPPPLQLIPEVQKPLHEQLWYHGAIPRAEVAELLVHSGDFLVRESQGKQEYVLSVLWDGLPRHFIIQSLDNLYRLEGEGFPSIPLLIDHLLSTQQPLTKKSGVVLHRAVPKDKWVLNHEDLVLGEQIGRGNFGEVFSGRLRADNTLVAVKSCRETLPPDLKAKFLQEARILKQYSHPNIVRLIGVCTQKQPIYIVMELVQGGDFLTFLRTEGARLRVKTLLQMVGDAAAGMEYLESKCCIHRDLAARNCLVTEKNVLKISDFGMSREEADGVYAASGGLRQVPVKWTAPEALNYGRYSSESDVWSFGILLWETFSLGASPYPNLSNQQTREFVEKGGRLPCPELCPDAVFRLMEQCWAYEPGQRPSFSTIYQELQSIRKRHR
# [8] = target: Fyn (UniProt P06241); assay: as above
# [9] = target: Hck (UniProt P08631); assay: as above
# Chain of Hck (P08631 whole entry, looked up): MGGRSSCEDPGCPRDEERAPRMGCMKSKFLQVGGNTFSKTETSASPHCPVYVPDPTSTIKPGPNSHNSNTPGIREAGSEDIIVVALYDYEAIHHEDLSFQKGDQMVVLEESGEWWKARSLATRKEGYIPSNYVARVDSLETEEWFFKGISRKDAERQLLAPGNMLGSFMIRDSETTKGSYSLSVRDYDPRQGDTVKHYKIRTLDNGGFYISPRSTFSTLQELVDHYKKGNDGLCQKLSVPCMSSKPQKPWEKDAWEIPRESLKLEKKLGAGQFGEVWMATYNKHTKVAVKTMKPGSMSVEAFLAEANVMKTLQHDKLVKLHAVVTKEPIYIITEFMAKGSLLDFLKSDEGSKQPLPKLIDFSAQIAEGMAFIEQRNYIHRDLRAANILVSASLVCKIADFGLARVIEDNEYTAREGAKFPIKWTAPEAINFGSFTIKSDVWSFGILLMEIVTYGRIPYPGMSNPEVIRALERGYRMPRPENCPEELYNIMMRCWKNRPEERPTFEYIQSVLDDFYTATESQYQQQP
# [10] = target: Jak2 (UniProt O60674); assay: as above
# Chain of Jak2 (O60674 whole entry, looked up): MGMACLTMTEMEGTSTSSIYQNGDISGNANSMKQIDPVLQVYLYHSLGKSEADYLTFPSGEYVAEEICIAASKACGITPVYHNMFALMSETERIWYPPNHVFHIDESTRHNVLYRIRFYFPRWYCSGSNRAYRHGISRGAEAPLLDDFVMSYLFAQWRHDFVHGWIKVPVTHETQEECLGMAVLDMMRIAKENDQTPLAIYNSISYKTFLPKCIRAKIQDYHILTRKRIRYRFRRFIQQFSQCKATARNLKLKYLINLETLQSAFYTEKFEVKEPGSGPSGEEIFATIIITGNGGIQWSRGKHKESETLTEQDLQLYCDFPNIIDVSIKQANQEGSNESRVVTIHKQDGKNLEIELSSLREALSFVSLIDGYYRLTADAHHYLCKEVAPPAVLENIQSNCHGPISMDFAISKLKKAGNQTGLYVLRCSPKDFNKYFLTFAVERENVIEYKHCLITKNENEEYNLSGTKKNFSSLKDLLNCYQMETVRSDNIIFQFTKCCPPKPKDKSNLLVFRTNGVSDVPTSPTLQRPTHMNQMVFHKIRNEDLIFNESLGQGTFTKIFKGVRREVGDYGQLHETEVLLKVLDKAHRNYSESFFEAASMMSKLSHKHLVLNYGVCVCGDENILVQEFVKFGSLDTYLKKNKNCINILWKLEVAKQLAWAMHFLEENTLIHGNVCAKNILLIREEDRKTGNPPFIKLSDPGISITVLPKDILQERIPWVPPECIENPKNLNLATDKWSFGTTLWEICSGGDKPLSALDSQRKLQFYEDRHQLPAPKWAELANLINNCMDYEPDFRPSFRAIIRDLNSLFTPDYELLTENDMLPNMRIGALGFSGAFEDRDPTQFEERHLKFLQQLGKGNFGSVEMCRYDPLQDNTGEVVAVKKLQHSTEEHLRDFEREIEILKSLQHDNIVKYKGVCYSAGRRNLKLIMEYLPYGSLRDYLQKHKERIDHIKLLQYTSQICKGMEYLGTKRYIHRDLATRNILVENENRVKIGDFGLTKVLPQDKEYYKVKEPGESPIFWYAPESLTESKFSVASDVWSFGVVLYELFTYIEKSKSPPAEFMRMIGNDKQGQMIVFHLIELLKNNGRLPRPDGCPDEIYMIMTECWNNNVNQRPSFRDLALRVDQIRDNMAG
# [11] = target: MERTK (UniProt Q12866); assay: as above
# [12] = tested on: c-Abl (mouse); assay: as above
# [13] = tested on: c-Src; assay: as above
# [14] = target: Grb2 SH2 (UniProt P62993); assay: SH2 binding enrichment of the phosphorylated peptide, bacterial display (enrichment ratio); higher = better substrate or ligand; peptides without Tyr show the background
# Chain of Grb2 SH2 (P62993 whole entry, looked up): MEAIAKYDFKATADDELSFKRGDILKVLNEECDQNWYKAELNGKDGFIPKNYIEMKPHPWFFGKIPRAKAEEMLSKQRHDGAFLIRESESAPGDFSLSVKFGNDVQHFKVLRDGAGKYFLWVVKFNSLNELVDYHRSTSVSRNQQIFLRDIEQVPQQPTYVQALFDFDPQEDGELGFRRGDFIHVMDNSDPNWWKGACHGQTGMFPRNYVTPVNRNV
# [15] = target: SHP2-C SH2; assay: as above
# [16] = target: c-Src SH2; assay: as above
# 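Throughout, for SH2 binding enrichment of the phosphorylated peptide, bacterial display: peptide library displayed on the E. coli surface as eCPX fusions, selected cells deep-sequenced, score is each peptide's frequency after selection divided by its frequency in the input.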
# 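Throughout, for phosphorylation enrichment, bacterial display: 11-residue human phosphosite peptides and single-mutation variants displayed on the E. coli surface, counted by deep sequencing, each peptide's frequency after selection divided by its frequency in the unselected input library; frequency after pTyr selection over input frequency; kinase dosed for 20-30% of maximal phosphorylation in three min.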
# Chain of EPHB2 (P29323 whole entry, looked up): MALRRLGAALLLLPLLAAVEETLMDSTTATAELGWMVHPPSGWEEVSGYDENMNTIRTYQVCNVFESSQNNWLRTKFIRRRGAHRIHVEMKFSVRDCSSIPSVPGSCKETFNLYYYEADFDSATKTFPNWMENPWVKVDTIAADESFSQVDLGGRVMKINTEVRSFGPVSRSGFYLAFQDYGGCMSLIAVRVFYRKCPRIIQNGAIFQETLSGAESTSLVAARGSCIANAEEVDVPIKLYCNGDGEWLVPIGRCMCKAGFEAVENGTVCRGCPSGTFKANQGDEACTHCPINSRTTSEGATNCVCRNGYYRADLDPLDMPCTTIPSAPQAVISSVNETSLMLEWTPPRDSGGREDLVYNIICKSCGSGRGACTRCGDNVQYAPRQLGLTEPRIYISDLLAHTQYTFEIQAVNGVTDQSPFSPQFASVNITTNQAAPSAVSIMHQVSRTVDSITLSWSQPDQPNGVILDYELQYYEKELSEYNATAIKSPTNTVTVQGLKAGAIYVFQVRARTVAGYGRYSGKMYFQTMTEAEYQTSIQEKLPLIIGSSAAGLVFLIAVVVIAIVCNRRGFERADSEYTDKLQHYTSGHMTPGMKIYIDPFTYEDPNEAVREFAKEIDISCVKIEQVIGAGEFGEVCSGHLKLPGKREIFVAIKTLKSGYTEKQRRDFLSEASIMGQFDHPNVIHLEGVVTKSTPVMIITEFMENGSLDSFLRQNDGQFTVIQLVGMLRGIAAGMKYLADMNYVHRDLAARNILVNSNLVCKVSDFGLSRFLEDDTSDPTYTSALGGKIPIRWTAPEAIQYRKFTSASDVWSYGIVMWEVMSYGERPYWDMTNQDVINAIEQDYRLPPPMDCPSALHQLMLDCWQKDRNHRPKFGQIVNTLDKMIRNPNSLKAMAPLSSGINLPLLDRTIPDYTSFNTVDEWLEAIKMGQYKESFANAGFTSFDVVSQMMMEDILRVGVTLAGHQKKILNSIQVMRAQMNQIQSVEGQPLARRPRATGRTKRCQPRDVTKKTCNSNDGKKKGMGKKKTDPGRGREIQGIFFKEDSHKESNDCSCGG
Sequence,phosphorylation enrichment [1],phosphorylation enrichment [2],phosphorylation enrichment [3],phosphorylation enrichment [4],phosphorylation enrichment [5],phosphorylation enrichment [6],phosphorylation enrichment [7],phosphorylation enrichment [8],phosphorylation enrichment [9],phosphorylation enrichment [10],phosphorylation enrichment [11],phosphorylation enrichment [12],phosphorylation enrichment [13],SH2 binding enrichment [14],SH2 binding enrichment [15],SH2 binding enrichment [16]
RRIHSYRGRLW [VHL_Y112_H115R],0.956,0.865,0.641,0.733,0.811,0.637,0.771,0.547,0.754,0.68,0.538,0.836,0.7,0.967,0.561,0.372
RRNEEYCLLAS [ITK_Y198_D202A],0.976,1.55,0.72,0.888,0.977,0.594,0.924,0.536,0.84,0.741,0.703,0.522,0.57,1.11,0.498,0.627
RRVEPYGENFN [APOA4_Y310],1.23,0.521,0.385,0.421,0.655,0.542,1.2,0.487,0.45,0.965,0.561,0.707,0.643,0.687,0.588,0.513
RRVLVYRGRGA [QDPR_Y16_G17R],0.963,0.818,0.714,0.758,0.779,0.618,0.991,0.712,0.782,0.692,0.708,0.829,0.754,0.71,0.5,0.425
RSDEDYLYREE [POR_Y573],1.32,0.756,0.854,0.784,1.16,0.559,1.54,0.761,0.827,1.48,0.52,0.813,0.56,0.738,0.748,0.435
RSGNCYLDIRP [FBN1_Y1535],1.06,0.58,0.7,0.802,0.728,0.514,1.27,0.567,0.544,1.45,0.633,1.04,0.583,0.688,0.782,0.615
RSYSPCDYQPC [TNS1_Y796_Y796C],1.12,17.1,8.45,2.76,1.28,0.544,0.935,0.554,0.777,0.533,0.726,0.457,1.56,0.759,0.421,1.17
RVQKRYILDNV [RCN1_Y115_F117L],0.494,0.176,0.234,0.326,0.327,0.337,0.463,0.372,0.366,0.487,0.367,0.384,0.409,0.804,0.553,0.454
SAGSSYSISVI [PAX5_Y179_G183V],0.986,0.553,0.712,0.485,0.752,0.572,0.975,0.688,0.539,0.835,0.472,0.807,0.48,0.856,0.686,0.62
SARSAYQEAMD [SFN_Y151],0.81,0.474,0.584,0.418,0.539,0.402,0.854,0.495,0.445,0.638,0.38,0.628,0.353,0.766,0.713,1.06
SASQEYHIVKK [PDZD2_Y557],0.779,0.512,0.527,0.905,0.538,0.48,0.676,0.422,0.513,0.572,0.507,0.697,0.441,0.78,0.893,0.792
SAVTGYRVNVI [FN1_Y937_D940N],0.633,0.407,0.407,0.391,0.488,0.434,0.752,0.403,0.399,0.634,0.359,0.415,0.386,0.95,0.823,0.505
SDGKRYRVPSD [HHIPL2_Y395_H391D],0.555,0.357,0.303,0.377,0.426,0.408,0.522,0.338,0.346,0.771,0.409,0.44,0.384,0.781,0.608,0.57
SDVCMYRKNTY [SYNE2_Y570_I574T],0.76,0.477,0.519,0.429,0.695,0.401,0.905,0.405,0.487,0.67,0.403,0.684,0.377,0.796,0.592,0.47
SECCKYKTDNP [OSMR_Y689_I691T],0.66,0.472,0.413,0.51,0.655,0.387,0.752,0.375,0.452,0.725,0.492,0.587,0.443,0.852,0.901,0.48
SETSRYLSDLF [KCNJ3_Y67],0.963,0.726,0.562,0.544,0.627,0.555,1.21,0.504,0.515,1.17,0.485,0.844,0.549,0.942,0.989,0.543
SFPPTYRYERG [INPPL1_Y661],0.73,0.362,0.43,0.498,0.49,0.29,0.592,0.431,0.437,0.449,0.505,0.373,0.427,0.831,0.605,0.489

Sequence,phosphorylation enrichment [1],phosphorylation enrichment [2],phosphorylation enrichment [3],phosphorylation enrichment [4],phosphorylation enrichment [5],phosphorylation enrichment [6],phosphorylation enrichment [7],phosphorylation enrichment [8],phosphorylation enrichment [9],phosphorylation enrichment [10],phosphorylation enrichment [11],phosphorylation enrichment [12],phosphorylation enrichment [13],SH2 binding enrichment [14],SH2 binding enrichment [15],SH2 binding enrichment [16]
SFSGEYGGGGG [ZG16_Y30_YF],0.62,0.392,0.467,0.496,0.35,0.413,0.571,0.348,0.397,0.47,0.306,0.505,0.423,0.663,0.543,0.471
SGIYQYIIAKF [FOXL2_Y83],1.15,10.6,5.98,6.4,4.7,9.49,1.72,4.03,6.52,0.852,8.1,6.06,3.69,1.24,1.05,1.07
SGIYQYNIAKF [FOXL2_Y83_I84N],0.898,2.14,1.56,0.659,0.605,14.7,0.732,3.42,4.76,0.593,9.83,4.58,3.79,0.976,0.875,1.01
SGPRCYTIAAL [TTR_Y125_R124C],0.617,0.41,0.403,0.392,0.462,0.554,0.669,0.405,0.354,0.535,0.344,0.46,0.399,0.808,0.766,0.586
SGPRHYTIAAL [TTR_Y125_R124H],0.59,0.516,0.51,0.404,0.509,0.438,0.66,0.455,0.468,0.525,0.464,0.524,0.455,1.06,1.19,1.35
SGSIHYSRVPR [GLB1_Y57],0.629,0.542,0.436,0.772,0.578,0.535,0.763,0.605,0.529,0.772,0.64,0.716,0.677,0.734,0.824,0.861
SHSMKYFDTAV [HLA-C_Y31_R30K],0.579,0.36,0.389,0.396,0.432,0.357,0.572,0.356,0.392,0.785,0.436,0.469,0.395,1.01,0.71,0.417
SIIKDYFHRGA [GATM_Y203],0.579,0.376,0.438,0.48,0.455,0.433,0.679,0.407,0.43,0.764,0.397,0.525,0.477,0.87,0.607,0.537
SIKDKYVTAFF [KCNH2_Y611_L615F_YF],0.582,0.363,0.44,0.403,0.489,0.483,0.731,0.399,0.4,0.526,0.369,0.635,0.372,1.04,0.848,0.589
SISLRYEGRVF [ABL1_Y167_YF],1.25,0.636,0.703,0.524,0.838,0.686,1.26,0.438,0.507,0.918,0.384,0.696,0.372,1.05,0.926,0.68
SISLRYEGRVY [ABL1_Y167],1.07,0.606,0.563,0.484,0.776,0.546,1.09,0.513,0.506,1.06,0.428,0.803,0.394,1.11,0.881,0.685
SKNYTYIWWLN [PSG4_Y271],1.09,0.582,0.58,0.589,0.77,0.638,1.14,0.343,0.4,1.09,0.332,0.676,0.273,0.921,0.657,0.444
SLMNQYVNKEF [RAB7A_Y28_K32E],0.58,0.392,0.554,0.373,0.568,0.385,0.66,0.461,0.469,0.442,0.383,0.482,0.459,2.46,0.949,0.578
SLNEVYTKNKT [MSH2_Y563_E562V],0.641,0.375,0.411,0.446,0.444,0.328,0.727,0.411,0.38,0.514,0.423,0.437,0.431,0.722,0.581,0.456
SLRAHYDTPRS [DOK7_Y405],0.428,0.392,0.351,0.343,0.351,0.367,0.448,0.349,0.328,0.402,0.319,0.412,0.298,0.712,0.914,3.32
SMAKYYASEIA [ACADSB_Y373],0.601,0.459,0.433,0.426,0.478,0.495,0.701,0.404,0.473,0.599,0.46,0.682,0.452,0.756,0.634,0.48
